Target: integrin αvβ5 on human colon adenocarcinoma HT-29 cells (human (endogenous in HT-29)) (UniProt P06756)
Chain of UniProt P06756 (P06756 31-1048, chain 1 of 2): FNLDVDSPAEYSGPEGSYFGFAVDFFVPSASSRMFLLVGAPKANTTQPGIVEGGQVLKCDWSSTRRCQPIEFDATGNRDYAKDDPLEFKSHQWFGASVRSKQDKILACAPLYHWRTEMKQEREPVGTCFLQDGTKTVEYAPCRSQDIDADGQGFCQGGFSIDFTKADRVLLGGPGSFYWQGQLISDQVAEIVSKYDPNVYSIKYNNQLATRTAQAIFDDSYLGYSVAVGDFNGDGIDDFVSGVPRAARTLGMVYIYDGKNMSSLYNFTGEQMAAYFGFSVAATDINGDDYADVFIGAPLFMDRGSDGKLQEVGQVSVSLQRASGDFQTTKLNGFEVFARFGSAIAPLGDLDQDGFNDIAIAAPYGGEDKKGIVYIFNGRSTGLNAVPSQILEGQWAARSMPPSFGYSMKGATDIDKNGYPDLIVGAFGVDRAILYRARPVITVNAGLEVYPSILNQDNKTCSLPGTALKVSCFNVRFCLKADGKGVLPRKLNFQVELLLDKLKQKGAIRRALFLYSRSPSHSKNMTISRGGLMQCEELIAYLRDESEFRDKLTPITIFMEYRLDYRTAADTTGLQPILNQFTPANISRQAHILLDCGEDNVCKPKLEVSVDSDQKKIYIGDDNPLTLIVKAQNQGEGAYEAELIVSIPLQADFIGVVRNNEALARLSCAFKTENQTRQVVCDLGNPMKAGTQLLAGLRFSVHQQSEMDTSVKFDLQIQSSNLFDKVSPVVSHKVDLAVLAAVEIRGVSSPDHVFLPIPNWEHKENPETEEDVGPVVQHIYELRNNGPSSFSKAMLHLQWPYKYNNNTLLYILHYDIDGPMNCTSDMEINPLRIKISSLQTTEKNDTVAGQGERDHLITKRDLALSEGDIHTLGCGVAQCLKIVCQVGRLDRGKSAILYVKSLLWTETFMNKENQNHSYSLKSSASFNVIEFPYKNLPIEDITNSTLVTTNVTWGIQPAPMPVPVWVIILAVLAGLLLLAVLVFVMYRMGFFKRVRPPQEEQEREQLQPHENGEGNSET
Chain of UniProt P06756 (P18084 24-799, chain 2 of 2, further chain): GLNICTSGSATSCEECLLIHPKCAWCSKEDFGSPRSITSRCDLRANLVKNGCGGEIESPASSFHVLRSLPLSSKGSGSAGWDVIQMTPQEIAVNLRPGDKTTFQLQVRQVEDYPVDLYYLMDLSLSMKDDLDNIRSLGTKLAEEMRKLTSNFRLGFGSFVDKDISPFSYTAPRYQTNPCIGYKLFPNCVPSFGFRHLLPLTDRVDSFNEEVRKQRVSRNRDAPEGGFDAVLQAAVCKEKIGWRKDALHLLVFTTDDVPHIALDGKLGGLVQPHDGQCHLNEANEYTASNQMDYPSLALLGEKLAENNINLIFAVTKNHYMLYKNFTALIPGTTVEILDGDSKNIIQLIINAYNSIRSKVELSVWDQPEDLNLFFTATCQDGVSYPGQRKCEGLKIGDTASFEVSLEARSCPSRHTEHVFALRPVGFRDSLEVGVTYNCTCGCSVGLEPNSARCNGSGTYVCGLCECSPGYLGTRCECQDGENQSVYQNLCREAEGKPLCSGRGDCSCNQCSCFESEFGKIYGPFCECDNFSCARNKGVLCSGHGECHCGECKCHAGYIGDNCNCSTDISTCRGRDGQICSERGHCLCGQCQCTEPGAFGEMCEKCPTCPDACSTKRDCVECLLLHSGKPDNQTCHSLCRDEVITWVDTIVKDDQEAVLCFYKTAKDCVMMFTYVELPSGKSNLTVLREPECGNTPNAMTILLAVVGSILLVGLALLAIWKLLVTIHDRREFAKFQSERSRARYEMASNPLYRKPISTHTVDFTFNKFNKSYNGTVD

**Q.** Which IC50 of inhibition of HT29 cell adhesion to immobilized vitronectin (blocks αvβ5 with vitronectin) does the source give for “Echistatin (Ech), recombinant wild type with 6xHis-tag (natural protein)” here?
**A.** 286 nM
